{"source": "paper PMC3977997", "about": "“Engineering the Expression and Characterization of Two Novel Laccase Isoenzymes from Coprinus comatus in Pichia pastoris by Fusing an Additional Ten Amino Acids Tag at N-Terminus” (PLoS ONE, 2014)", "experiment_in_all_cases": "purified protein", "conditions_in_all_cases": "air oxygen", "key": {"purified protein [1]": {"substrate": "COc1ccccc1O"}, "purified protein [2]": {"substrate": "COc1cc(C=NN=Cc2cc(OC)c(O)c(OC)c2)cc(OC)c1O", "format": "biochemical, Coprinus comatus"}, "purified protein [3]": {"substrate": "CCn1c(=NN=c2sc3cc(S(=O)(=O)O)ccc3n2CC)sc2cc(S(=O)(=O)O)ccc21", "format": "biochemical, Coprinus comatus"}, "purified protein [4]": {"substrate": "Cc1cccc(C)c1O", "format": "biochemical, Coprinus comatus"}, "[5]": {"conditions": "pH 6.0, optimal temperature 60 °C, 60.0 °C"}, "[6]": {"conditions": "pH 6.0 (optimum elsewhere given as 5.5), optimal temperature 65 °C"}, "[7]": {"conditions": "pH 3.0, optimal temperature 60 °C"}, "[8]": {"conditions": "pH 5.5 (optimum elsewhere given as 6.0), optimal temperature 65 °C"}, "[9]": {"conditions": "pH 5.0, optimal temperature 50 °C, 50.0 °C"}, "[10]": {"conditions": "pH 5.0 (optimum elsewhere given as 5.5), optimal temperature 60 °C"}, "[11]": {"conditions": "pH 3.0, optimal temperature 65 °C"}, "[12]": {"conditions": "pH 5.5 (optimum elsewhere given as 5.0), optimal temperature 60 °C"}}}
{"protein": "Lac4 (Coprinus comatus) (protein, mature form (532-aa precursor, 16-aa putative signal peptide removed); pPICZalphaB-10AALac4; secreted from Pichia pastoris KM71H; glycosylated, about 70 kDa (52 kDa after endoH)) LSVGPRATLTLTNDVVAPDGFERSAIVVNGGHPGPLIQANKGDAYTINVVNRLTDSTMQRVSSIHWHGLSQRGTNWADGGSGVNQCPISPNHSFEYQFSGRKDQAGTFWYHSHYSIQYCDGLRGPLVIYDPNDPFKNLYDVDDESTVITLTDWYHTPFPSVTGPPTSDSTLINGKGRYPGGPNVDLSVINVERGKRYRFRLVALTCENSHLFGIDGHQLLVIETGGESTVPTLVDKITLLAGQRYSFVLDANQAVDNYWIRGLPRSGVPSLKAGYEGGLNSAILRYQGAPITEPQTTDNENAALLDEAQLVPTRNPFAPGRPTSGGADFNVTVNFELDLTTGSPHFKLNGKIYQPPTVPILLQIISGARKAEELLPEGNIYFVPRNKVVEVTVPGGIPGAPHPMHLHGHHFSVVKSAGKHNQVNYLTPVRRDTTASPVEVDDNTTIRFTTDSPGPWIFHCHFNKHQSIGMAVVFVADIDEVAEKNPTPDAWNDLCPIYQSLSESETVVEIVPMVKH", "values": [{"measurement": "Km", "setting": "purified protein [1]; [5]", "result": 0.455, "unit": "mM"}, {"measurement": "kcat", "setting": "purified protein [1]; [5]", "result": 0.196, "unit": "s⁻¹"}, {"measurement": "kcat/Km", "setting": "purified protein [1]; [5]", "result": 503, "unit": "M⁻¹ s⁻¹"}, {"measurement": "Km", "setting": "purified protein [2]; [6]", "result": 0.204, "unit": "mM"}, {"measurement": "kcat", "setting": "purified protein [2]; [6]", "result": 44.7, "unit": "s⁻¹"}, {"measurement": "kcat/Km", "setting": "purified protein [2]; [6]", "result": 220000, "unit": "M⁻¹ s⁻¹"}, {"measurement": "Km", "setting": "purified protein [3]; [7]", "result": 0.205, "unit": "mM"}, {"measurement": "kcat", "setting": "purified protein [3]; [7]", "result": 1.47, "unit": "s⁻¹"}, {"measurement": "kcat/Km", "setting": "purified protein [3]; [7]", "result": 7170, "unit": "M⁻¹ s⁻¹"}, {"measurement": "Km", "setting": "purified protein [4]; [8]", "result": 7.131, "unit": "mM"}, {"measurement": "kcat", "setting": "purified protein [4]; [8]", "result": 1.47, "unit": "s⁻¹"}, {"measurement": "kcat/Km", "setting": "purified protein [4]; [8]", "result": 206, "unit": "M⁻¹ s⁻¹"}]}
{"protein": "Lac3 (Coprinus comatus) (protein, mature form (547-aa precursor, 28-aa putative signal peptide removed); pPICZalphaB-10AALac3; secreted from Pichia pastoris KM71H; glycosylated, about 75 kDa (55 kDa after endoH)) SVLIPHSTLTLTNQLIAPDGFQRSAIVVNGEHPGPLIQATKGDGFMVNVVNQLTDPTMQRAASVHWHGLSQRGTNWADGATGVNQCPISPNHSFEYTFTGGDSQAGTFWYHSHYFLQYCDGLRGPLVIYDPEDPWKNLYDVDDESTVLTLADWYHTPFPSIPGFPLPESTLINGKGRYPDGPNVDLSIVNVEKGKRYRFRLVSLACETSYLFGIDGHQLQVIETDGQNTVPVVVDKLRIFAGQRYSFVLDANQNIDNYWVRSLPANGMPKLVAGYEGGINSAILRYRGAPISDPQTNDNQNLILLEEAKLVPAQDPFPPGNPTAGGADFNVTLNFVLDVDLASGEPQFKLNDKVYRPPSVPILLKILSGARRPEELLPEGNLFSVPRDKVIEVTVPGGIAAGPHPMHLHGHTFSVVKSAGKNNQPNYLTPVRRDVTATSQEVDDYITIRFTTDNPGPWLLHCHLNKHHESGMVVVFVADVDSVAEENPVPDAWNDLCPIYDALSDAEKEVKIVSSLPMPV", "values": [{"measurement": "Km", "setting": "purified protein [1]; [9]", "result": 1.114, "unit": "mM"}, {"measurement": "kcat", "setting": "purified protein [1]; [9]", "result": 0.418, "unit": "s⁻¹"}, {"measurement": "kcat/Km", "setting": "purified protein [1]; [9]", "result": 375, "unit": "M⁻¹ s⁻¹"}, {"measurement": "Km", "setting": "purified protein [2]; [10]", "result": 0.087, "unit": "mM"}, {"measurement": "kcat", "setting": "purified protein [2]; [10]", "result": 32, "unit": "s⁻¹"}, {"measurement": "kcat/Km", "setting": "purified protein [2]; [10]", "result": 367000, "unit": "M⁻¹ s⁻¹"}, {"measurement": "Km", "setting": "purified protein [3]; [11]", "result": 0.136, "unit": "mM"}, {"measurement": "kcat", "setting": "purified protein [3]; [11]", "result": 3.48, "unit": "s⁻¹"}, {"measurement": "kcat/Km", "setting": "purified protein [3]; [11]", "result": 25600, "unit": "M⁻¹ s⁻¹"}, {"measurement": "Km", "setting": "purified protein [4]; [12]", "result": 1.374, "unit": "mM"}, {"measurement": "kcat", "setting": "purified protein [4]; [12]", "result": 0.307, "unit": "s⁻¹"}, {"measurement": "kcat/Km", "setting": "purified protein [4]; [12]", "result": 223, "unit": "M⁻¹ s⁻¹"}]}
